In data set [1] the target is T1, TbRAP1 639-733 (RRM) (Trypanosoma brucei) (UniProt C1JEX5).
T1 sequence: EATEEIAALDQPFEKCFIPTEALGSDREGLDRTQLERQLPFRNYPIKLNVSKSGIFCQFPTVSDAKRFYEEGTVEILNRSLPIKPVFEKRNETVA
Description: fluorescence polarization. The conditions noted are these: EMSA: 20 mM HEPES pH 7.9, 235 mM KCl, 1 mM MgCl2, 0.1 mM EDTA, 100 ng/ul BSA, 5% glycerol, 1 mM DTT, room temp 30 min; FP: 20 mM sodium phosphate pH 7.0, 50 mM ….

In data set [2] the target is TH6-TbRAP1 639-761 2FA&5A (Trypanosoma brucei, UniProt C1JEX5 639-761, F655A;F694A;R737A;K738A;R739A;R740A;R741A). In words: EMSA; EMSA: 20 mM HEPES pH 7.9, 235 mM KCl, 1 mM MgCl2, 0.1 mM EDTA, 100 ng/ul BSA, 5% glycerol, 1 mM DTT, room temp 30 min; FP: 20 mM sodium phosphate pH 7.0, 50 mM. The following applies: protein: recombinant; tags: TrxA-His6. In general terms: Mobility shift assays separate free from complexed probe on a gel.

The target of data set [3] is TbRAP1 639-733 2FQ (Trypanosoma brucei, UniProt C1JEX5 639-733, F655Q;F694Q). The data set is described as above. The following applies: protein: recombinant, tags: none (TrxA-His6 removed by 3C).
Data set [4] has as its target T2, TbRAP1 639-761 (RRM+DB) (Trypanosoma brucei, UniProt C1JEX5 639-761). Described as above. The following applies: protein: recombinant, tags: none (TrxA-His6 removed by 3C for EMSA).
Data set [5] deals with TH6-TbRAP1 639-761 5A (Trypanosoma brucei, UniProt C1JEX5 639-761, R737A;K738A;R739A;R740A;R741A). Described as above. The conditions noted are these: protein: recombinant, tags: TrxA-His6.
The target in data set [6] is TbRAP1 639-733 2FA (Trypanosoma brucei, UniProt C1JEX5 639-733, F655A;F694A). Described as above. The conditions noted are these: protein: recombinant, tags: none (TrxA-His6 removed by 3C).
Data set [7] addresses T3, TbRAP1 639-733 2FL (Trypanosoma brucei, UniProt C1JEX5 639-733, F655L;F694L). The description is as above. The conditions noted are these: protein: recombinant, tags: none (TrxA-His6 removed by 3C for EMSA).
The target of data set [8] is T2, TbRAP1 639-761 (RRM+DB). Description: fluorescence polarization; EMSA: 20 mM HEPES pH 7.9, 235 mM KCl, 1 mM MgCl2, 0.1 mM EDTA, 100 ng/ul BSA, 5% glycerol, 1 mM DTT, room temp 30 min; FP: 20 mM sodium phosphate pH 7.0, 50 mM. The following applies: protein: recombinant; tags: none (TrxA-His6 removed by 3C for EMSA); label: 5' 6-FAM. In general terms: Fluorescence polarisation rises when a labelled molecule tumbles more slowly, as on binding a larger partner.

The target of data set [9] is TbRAP1 639-761 5A (Trypanosoma brucei, UniProt C1JEX5 639-761, R737A;K738A;R739A;R740A;R741A). The description is as above. The following applies: protein: recombinant; label: 5' 6-FAM.
Data set [10] addresses T2, TbRAP1 639-761 (RRM+DB). Description: NMR titration; EMSA: 20 mM HEPES pH 7.9, 235 mM KCl, 1 mM MgCl2, 0.1 mM EDTA, 100 ng/ul BSA, 5% glycerol, 1 mM DTT, room temp 30 min; FP: 20 mM sodium phosphate pH 7.0, 50 mM. The conditions noted are these: protein: recombinant; tags: none (TrxA-His6 removed by 3C for EMSA).
Data set [11] deals with T3, TbRAP1 639-733 2FL. Description: NMR titration; 3x molar excess RNA; EMSA: 20 mM HEPES pH 7.9, 235 mM KCl, 1 mM MgCl2, 0.1 mM EDTA, 100 ng/ul BSA, 5% glycerol, 1 mM DTT, room temp 30 min; FP: 20 mM sodium phosphate pH 7.0, 50 mM. The conditions noted are these: protein: recombinant; tags: none (TrxA-His6 removed by 3C for EMSA).
Data set [12] addresses T4, TbRAP1 639-733 (RRM) (Trypanosoma brucei, UniProt C1JEX5 639-733). In words: NMR titration; EMSA: 20 mM HEPES pH 7.9, 235 mM KCl, 1 mM MgCl2, 0.1 mM EDTA, 100 ng/ul BSA, 5% glycerol, 1 mM DTT, room temp 30 min; FP: 20 mM sodium phosphate pH 7.0, 50 mM. The following applies: protein: recombinant, tags: none (TrxA-His6 removed by 3C for EMSA).
Data set [13] has as its target TH6-TbRAP1 639-761 (Trypanosoma brucei, UniProt C1JEX5 639-761). In words: EMSA; EMSA: 20 mM HEPES pH 7.9, 235 mM KCl, 1 mM MgCl2, 0.1 mM EDTA, 100 ng/ul BSA, 5% glycerol, 1 mM DTT, room temp 30 min; FP: 20 mM sodium phosphate pH 7.0, 50 mM. The conditions noted are these: protein: recombinant; tags: TrxA-His6; label: 32P.
Data set [14] addresses TH6-TbRAP1 639-733 (Trypanosoma brucei, UniProt C1JEX5 639-733). The data set is described as above. The following applies: protein: recombinant; tags: TrxA-His6; label: 32P.
The target of data set [15] is T4, TbRAP1 639-733 (RRM). The data set is described as above. The following applies: protein: recombinant; tags: none (TrxA-His6 removed by 3C for EMSA); label: 32P end label.

The Kd is the equilibrium constant for the complex coming apart.

In data set [1], UGAUAUAUUUUAACAC [6-FAM-16-VSG-UTR] had a Kd of 929 µM.

B1: 170-VSG-UTR (ssRNA)
RNA: GGGCGAAUUGGGUACCGGGCCCCCCCUCGAGGUCGACGGUAUCGAUAAGCUUGAUAUCGAAUUCAAUUCAUUUCCCCCCUCAAAUUUCCCCCCUCCUUUUAAAAUUUUCCUUGCUACUUGAAAACUUUUUGAUAUAUUUUAACACCAAAACCAGCCGAGAUUUGGGAUCC
In the case of B1, the binding result in [2] is “no binding”; in [3], “no binding”; in data set [5] it was “binds”; in data set [6], “no binding”; in [7], “no binding”. Besides, the Kd in [4] was about 0.173 µM.
For UGAUAUAUUUUAACAC (ssRNA) [6-FAM-16-VSG-UTR], the Kd in [8] is about 258 µM; in data set [9], about 969 µM.
AAAACUUUUUGAUAUAUUUUAACACCAAAACCAG (ssRNA) [34-VSG-UTR]: the binding result in data set [10] is recorded as “binds”; in data set [11], “no binding”.
Take UUAGGGUUAGGG (ssRNA) [(UUAGGG)2]: the binding result in [12] is listed as “no binding”.

B2: 80-dsDNA (dsDNA)
DNA 1: CGTGCAGAGCAGGAAAAAGCCACACGGGAACTCCTCCTGCAACAAACTTCAGCACCACATGCATCATCAGTTACATCCGG
DNA 2: CCGGATGTAACTGATGATGCATGTGGTGCTGAAGTTTGTTGCAGGAGGAGTTCCCGTGTGGCTTTTTCCTGCTCTGCACG
Take B2: the binding result in data set [4] (label: 32P Klenow, blunt) is “binds”.
For the molecule ACAGACCACUACAAGAUACACAGUACAACCAACCA (ssRNA) [35-random], the binding result in data set [12] (label: 32P end label in EMSA) is “no binding”.

B3: 170-no-VSG (ssRNA)
RNA: GGGCGAAUUGGGUACCGGGCCCCCCCUCGAGGUCGACGGUAUCGAUAAGCUUGAUAUCGAAUUCAAUUCCAAAGAAGCCAUGCGCCGUGCAGAGCAGGAAAAAGCCACACGGGAACUCCUCCUGCAACAAACUUCAGCACCACAUGCAUCAUCAGUUACAUCCGGGAUCC
For B3, the binding result in data set [3] (label: 32P) was “no binding”; in data set [13] it was “binds”; in data set [4] (label: 32P), “binds”; in data set [5] (label: 32P) it was “binds”; in data set [14], “binds”; in [6] (label: 32P), “no binding”. In data set [7] (label: 32P), the binding result is “no binding”.
For UUGCUACUUGAAAACUUUUUGAUAUAUUUUAACAC (ssRNA) [35-VSG-UTR], the binding result in [15] and in [4] (label: 32P end label) was “binds” throughout.

Source of the values: publication PMC10033678, “The RRM-mediated RNA binding activity in T. brucei RAP1 is essential for VSG monoallelic expression”.
